Test results published in PMC10003087, “VRK1 Kinase Activity Modulating Histone H4K16 Acetylation Inhibited by SIRT2 and VRK-IN-1” (International Journal of Molecular Sciences, 2023).

Biological target: T1, GST-VRK1 (human, UniProt Q99986 1-396)
T1 sequence (looked up): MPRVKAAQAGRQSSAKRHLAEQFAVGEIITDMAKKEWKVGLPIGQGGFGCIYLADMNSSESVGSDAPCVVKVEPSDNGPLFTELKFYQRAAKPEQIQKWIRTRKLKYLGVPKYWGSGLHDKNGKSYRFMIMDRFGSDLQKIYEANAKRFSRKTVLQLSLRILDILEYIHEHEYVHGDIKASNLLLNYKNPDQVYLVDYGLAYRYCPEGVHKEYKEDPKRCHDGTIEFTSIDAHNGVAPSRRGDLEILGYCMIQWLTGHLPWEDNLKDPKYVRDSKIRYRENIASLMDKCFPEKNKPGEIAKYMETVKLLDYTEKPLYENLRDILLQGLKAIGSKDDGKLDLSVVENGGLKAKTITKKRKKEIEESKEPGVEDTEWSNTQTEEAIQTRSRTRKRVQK
Test: cell-based or functional assay

B1: SIRT2-his (enzyme, human, UniProt Q8IXJ6 1-389, looked up)
chain: MAEPDPSHPLETQAGKVQEAQDSDSDSEGGAAGGEADMDFLRNLFSQTLSLGSQKERLLDELTLEGVARYMQSERCRRVICLVGAGISTSAGIPDFRSPSTGLYDNLEKYHLPYPEAIFEISYFKKHPEPFFALAKELYPGQFKPTICHYFMRLLKDKGLLLRCYTQNIDTLERIAGLEQEDLVEAHGTFYTSHCVSASCRHEYPLSWMKEKIFSEVTPKCEDCQSLVKPDIVFFGESLPARFFSCMQSDFLKVDLLLVMGTSLQVQPFASLISKAPLSTPRLLINKEKAGQSDPFLGMIMGLGGGMDFDSKKAYRDVAWLGECDQGCLALAELLGWKKELEDLVRREHASIDAQSGAGVPNPSTSASPKKSPPPAKDEARTTEREKPQ
  IC50 of SIRT2 for inhibition of VRK1 autophosphorylation (in vitro kinase assay, dose-dependent): 190 nM
  IC50 of SIRT2 for inhibition of the phosphorylation of histone H3 by VRK1 (in vitro kinase assay, dose-dependent): 150 nM
